Measured values published in the supplement of paper PMC9732359.
± gives the uncertainty stated by the source.

Assay: protein stability index of a GFP-peptide fusion (yeast GPS) (PSI 1-4); higher = more stable; sorted into four equal gates, so the index is relative within each strain
Conditions: san1∆
How it was run: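 Tiled yeast protein peptides of 17 residues were each joined downstream of GFP, on plasmids that also express Cherry. The pooled library was maintained in yeast, and mid-log cultures in leucine-free medium were sorted into four equal gates on the GFP/Cherry ratio. Plasmids from every gate were amplified by PCR and sequenced on Illumina, with barcodes linking reads to strains. The protein stability index of a peptide is its gate-number-weighted read frequency summed over the gates.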

Sequence | protein stability index
NKIINWEISNPDFLSKY [NUT1] | 2.11 ± 0.11
NKIRNLELPLCPYCYKK [SIR2] | 1.97 ± 0.069

Same assay, conditions: ubr1∆

Sequence | protein stability index
MGKGTPSFGKRHNKSHT [RPL37A] | 3.02 ± 0.069
MGQIATFIYFAYFLIIV [COB] | 1.11 ± 0.026
MGVRTFSQKEMAFNLLG [FAS2] | 2.21 ± 0.046
MHSYFIFKDLVTVFLFM [COB] | 1.34 ± 0.025
MINDENYIINDIKKNNK [SRB8] | 3.21 ± 0.13
MINGRKLIKFETRNEDD [FAS1] | 2.81 ± 0.044
MINRLLLCALDRKDQDD [RPB2] | 2.97 ± 0.067
MIVYYKDAISFIKEIHK [YCS4] | 2.26 ± 0.072
MKLVNFLKKLRNEQVTI [SMD1] | 2.5 ± 0.11
MKPSEILSLIEEAAGTK [SMC2] | 3.22 ± 0.064
MKQLKFFKPLDYITEAV [SNU114] | 1.92 ± 0.036
MKRMVAQWERSKLSQEF [SNF12] | 3.21 ± 0.087
MKTPSLTVYLEPGHAAD [RPO21] | 3 ± 0.073
MKVEELIIDGFKSYATR [SMC2] | 3.22 ± 0.096
MKVKADRDESSPYAAML [RPS14A] | 3.27 ± 0.068
MLSAHNIIESIANFSRA [YJR042W/NUP85] | 2.48 ± 0.036
MNFISKEEFIMMVNISV [PCI8] | 1.37 ± 0.063
MNFNTPQQNKTPFSFGT [YJL041W/NSP1] | 2.95 ± 0.05
MNNETSGKETASAPLCS [DLS1] | 3.12 ± 0.063
MNQSSIDRGLFRSLFFR [RPB2] | 2.94 ± 0.08
MPDEFNTLYTAIITDDL [SRP72] | 2.64 ± 0.043
MQANKLDSQETPSTEES [SWI3] | 2.36 ± 0.056
MQEKAAHIAKNLINLSI [YCS4] | 1.46 ± 0.093
MQTALRRLPEDESYARA [QCR7] | 2.39 ± 0.044
MQVLNTKSETKQENETM [MED11] | 2 ± 0.092

Sequence | protein stability index
MSAKAEKKPASKAPAEK [HTB1] | 2.89 ± 0.098
MSDHSLDKLNCAINSKS [RRP6] | 2.83 ± 0.036
MSESSDISAMQPVNPKP [SMX3] | 3.17 ± 0.14
MSGSLKSLDKKIAKRRQ [POP3] | 3.5 ± 0.2
MSGYDRALSIFSPDGHI [PRE6] | 2.69 ± 0.077
MSKITSSQVREHVKELL [RPL1A] | 1.99 ± 0.051
MSLRHFGHLMHYGNEHI [RPN1] | 1.33 ± 0.032
MSLVVQEQGSFQHILRL [RPS18A] | 2.92 ± 0.1
MSNKVKTKAMVPPINCI [SME1] | 2.57 ± 0.035
MSQGQSKKLDVTVEQLR [NSL1] | 2.78 ± 0.075
MSQSTASLVPEGNQGSL [MED8] | 2.76 ± 0.13
MSSTNGNAPATPSSDQN [SOH1] | 3.11 ± 0.1
MSTDSIVKASNWRLVEV [RPL14A] | 1.71 ± 0.087
MSTFIFPGDSFPVDPTT [RRP40] | 2.35 ± 0.074
MTDMQIQWYKSLLEKDI [ISW2] | 2.78 ± 0.061
MTLNRKCVVIHNGSHRT [ARP7] | 2.66 ± 0.045
MTPLLVNCLELLINTNF [PCI8] | 1.42 ± 0.057
MTPVIEKIAAGYMQKPV [PRP28] | 2.68 ± 0.075
MVDVEEKSQEVEYVDPT [RPN7] | 3.38 ± 0.16
MVLFNIYDDWLDRISSY [PRP8] | 2.26 ± 0.045
MVMAGSKGSFINIAQMS [RPO21] | 1.42 ± 0.05
MVNESDGVTHALYPQEA [RPB2] | 3.35 ± 0.086
MYPSPTGVMIGIDLAYN [PRP8] | 2.07 ± 0.048
MYTLSAQDEVFSLAFSP [ASC1] | 2.75 ± 0.066
NAAGNTPDATKIKAILE [RPP2A] | 3.19 ± 0.054

Sequence | protein stability index
NACAKYGRDDMENIKKS [ISW2] | 3.06 ± 0.086
NADLDVKDELMFSPLVD [RPO21] | 3.31 ± 0.034
NAGTEKEKESKKDSKPA [YLR335W/NUP2] | 3.42 ± 0.05
NANAGLFNKPPSTNAQN [YOR098C/NUP1] | 3.16 ± 0.034
NANTVFAGSNNQPHQSQ [YOR098C/NUP1] | 3.07 ± 0.046
NAQQTFHIDHTKPSDLT [RPO21] | 2.82 ± 0.041
NAQSKLSLTLNTHYHAD [SNF2] | 3.09 ± 0.085
NARIYNTEGSVVYEDSL [SNF2] | 3.25 ± 0.13
NAYGFIEWCSRCNDNLM [YJL039C/NUP192] | 2.24 ± 0.078
NDDALDLDLDLFDPDDF [MED4] | 3.07 ± 0.032
NDDSSSMNATMRNFSKQ [YDL088C/ASM4] | 2.93 ± 0.091
NDEPSHKKIKVAQPDSL [SIR2] | 3.19 ± 0.055
NDINISSIENNINNNIN [MED2] | 3.11 ± 0.039
NDLGKFIPNKQLNCVID [RPN7] | 3.05 ± 0.19
NDLHHSEKKYAEEDQVQ [RPN3] | 2.98 ± 0.21
NDLVKARDLLDDLEKTL [RPN9] | 3.15 ± 0.087
NEKLECISLGSTKLSRP [ITC1] | 2.47 ± 0.057
NENEDEDEGTLNVAEII [ARP9] | 2.13 ± 0.12
NENKVIIELPNEKFEIE [SRB4] | 2.8 ± 0.042
NENNSNGGEDTSVENEG [REC8] | 3.07 ± 0.089
NFAHSDSLSVPKVSAGD [SIR4] | 3.27 ± 0.11
NFALTTLIDLVKHSPGA [ECM29] | 2.13 ± 0.062
NFEATKKSVLKQVQDFE [COR1] | 2.91 ± 0.072
NFETEWNLQTLAADDAF [RPB11] | 2.54 ± 0.13
NFLIKLSELSPGIMLRQ [YCS4] | 2.95 ± 0.093

Sequence | protein stability index
NFPEASKLSEHLNHYIL [YCG1] | 2.53 ± 0.09
NFRILKSFTNDKIPLNY [SRB5] | 2.91 ± 0.036
NFYRPLLRSVLVLLELV [YML103C/NUP188] | 1.06 ± 0.074
NGEIKGENIDADNDGPR [SNF2] | 3.08 ± 0.073
NGFHGRLGDLGVIDDSF [SMC4] | 3.46 ± 0.057
NGGSEEEITCALDYLIP [MED7] | 3.35 ± 0.09
NGIPLKSKERSSQFVRL [YMR129W/POM152] | 2.85 ± 0.075
NGKVQYFLRRQYILQIV [YJL039C/NUP192] | 1.45 ± 0.053
NGLIISWSNGKITSPIR [RRP42] | 3.39 ± 0.12
NGNDESSEYETINISLS [NUT1] | 3.58 ± 0.25
NGTLIGCVSYSPAALKQ [YMR153W/NUP53] | 2.26 ± 0.045
NHDRINISNNLQKALTV [RPN8] | 3.27 ± 0.046
NHLDELQKKFVTKQSEL [SMC1] | 2.72 ± 0.075
NILWAIYNSASKASMQK [YCS4] | 2.18 ± 0.077
NINEVKKASDLVDTPSN [NUT1] | 3.27 ± 0.07
NIPKPLNSYHIKNGRIY [RGR1] | 2.14 ± 0.027
NIRSQLLSENRSEKSTT [SRP54] | 3.13 ± 0.038
NITDYETHPDNSNKQAV [BRR2] | 2.9 ± 0.034
NIVDSSAAGNKAIPTFS [YIL149C/MLP2] | 2.44 ± 0.059
NIWGTVRTNRFDIIEES [ECM29] | 2.98 ± 0.12
NIYNFSPSERIEPLEIN [BRR2] | 2.2 ± 0.05
NKHLTTLVEIFLERKCV [SSN3] | 3.2 ± 0.17
NKIINWEISNPDFLSKY [NUT1] | 1.8 ± 0.05
NKIRNLELPLCPYCYKK [SIR2] | 1.98 ± 0.074
